US20240343803A1 (SHANDONG SIMCERE BIOPHARMACEUTICAL, published 2024)
Where two headings read alike, the source gives them in different places.

How the values were obtained:
[1] = molecular target: T1, human TIGIT ECD-mFc (human); test: ELISA, human TIGIT ECD-mFc captured by anti-mouse IgG
T1 construct: also called human TIGIT protein; fusion protein of extracellular domain of human TIGIT and mouse IgG2a Fc fragment
T1 chain: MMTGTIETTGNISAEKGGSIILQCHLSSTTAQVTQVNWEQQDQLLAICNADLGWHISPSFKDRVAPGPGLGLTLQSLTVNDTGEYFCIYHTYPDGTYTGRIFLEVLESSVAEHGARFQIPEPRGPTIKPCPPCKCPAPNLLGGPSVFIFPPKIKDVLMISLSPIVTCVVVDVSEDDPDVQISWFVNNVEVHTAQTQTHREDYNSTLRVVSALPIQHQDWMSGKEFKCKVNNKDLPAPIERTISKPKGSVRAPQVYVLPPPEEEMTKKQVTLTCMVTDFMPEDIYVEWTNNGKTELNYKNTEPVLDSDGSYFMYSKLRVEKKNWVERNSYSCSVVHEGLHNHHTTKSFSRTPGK
Description: (§1) After washing with blocking buffer, the plate was added with 50 μL/well of 30 ng/ml human TIGIT ECD-mFc (in house) or cynomolgus monkey TIGIT ECD-mFc (in house) and incubated at 37° C. for 2.0 hours. After washing the plate, the serial diluted antibodies (initial concentration 13 nM, 3-fold serial dilution, 12 concentration points) were added into the plate (50 μL/well) and incubated at 37° C. for 2.0 hours. After washing the plate, the goat anti-human IgG Fc-HRP (Merck, Cat NO. AP113P)) working solution (dilution ratio 1:5000, 50 μL/well) were added into wells and incubated at 37° C. for 1.0 hour. A HRP substrate, TMB (KPL, Cat NO. 5120-0077) was added into wells after washing the plate again for color development. After adding a termination solution to terminate the reaction, the absorbance value was read by a microplate reader (PE, Ensight-HH3400). An antibody binding curve was drawn with molar concentration of antibodies as the abscissa and the corresponding OD value as the ordinate. The EC50 value was calculated by using a Four Parameter Logistic Fit (GraphPad Prism9). […] The positive control antibodies are RG6058-hIgG1, TIGIT-002-H4L3 and TIGIT-005-H2Lld; and the negative control antibodies are anti-Fluorescein-hIgG1 (in house). The binding results of the 4 humanized bispecific antibodies to human TIGIT protein are shown in FIG. 43 and Tables 42 and 43, and the binding results to cynomolgus monkey TIGIT are shown in FIG. 44 and Tables 42 and 43.

[2] = molecular target: T1, human TIGIT ECD-mFc; test: as above
Description: as §1

[3] = molecular target: T2, cynomolgus monkey TIGIT ECD-mFc (cynomolgus monkey); test: ELISA, cynomolgus TIGIT ECD-mFc captured by anti-mouse IgG
T2 construct: also called cynomolgus monkey TIGIT protein
Description: as §1

[4] = molecular target: T2, cynomolgus monkey TIGIT ECD-mFc; test: as above; remark: listed apart in the source
Description: as §1

[5] = molecular target: T3, human PVRIG (AcroBiosystems, Cat NO. PVG-H52H4) (human, UniProt Q6DKI7 41-171, limits assumed); test: ELISA, coated human PVRIG
T3 construct: Bought protein with His tag; also called human PVRIG-his; human PVRIG protein
T3 sequence (looked up): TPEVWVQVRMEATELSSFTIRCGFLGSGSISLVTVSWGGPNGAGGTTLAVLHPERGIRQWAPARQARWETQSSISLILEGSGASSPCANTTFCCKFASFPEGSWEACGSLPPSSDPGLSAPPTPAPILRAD
Description: (§2) The ELISA plate was pre-coated with 50 μL/well of 1.0 μg/mL human PVRIG (AcroBiosystems, Cat NO. PVG-H52H4) or 50 μL/well of 0.5 μg/mL cynomolgus monkey PVRIG (Novoprotein, Cat NO. C09B). The tested antibodies were serially diluted (initial concentration 13 nM, 3-fold serial dilution, 12 concentration points), added into the plate (50 μL/well) and incubated at 37° C. for 2.0 hours. After washing the plate, the Goat anti-human IgG Fc-HRP (Merck, Cat NO. AP113P) working solution (dilution ratio 1:5000, 50 μL/well) were added into wells and incubated at 37° C. for 1.0 hour. A HRP substrate, TMB (KPL, Cat NO. 5120-0077) was added into wells after washing the plate again and incubated at 37° C. for 10 minutes for color development. After adding a termination solution to terminate the reaction, the absorbance value was read by a microplate reader (PE, Ensight-HH3400). An antibody binding curve was drawn with molar concentration of antibodies as the abscissa and the corresponding OD value as the ordinate. The EC50 value was calculated by using a Four Parameter Logistic Fit (GraphPadPrism9). […] The positive control antibodies are COM701-hIgG1, PVRIG-A50-H1b and PVRIG-A105-H1; and the negative control antibodies are anti-Fluorescein-hIgG1 (in house). The binding results of the 4 humanized bispecific antibodies to human PVRIG protein are shown in FIG. 41 and Tables 40 and 41, and the binding results to cynomolgus monkey PVRIG are shown in FIG. 42 and Tables 40 and 41. […] The binding of LC-BsAb-002 and LC-BsAb-006 to human PVRIG protein is slightly weaker than that of the corresponding monoclonal antibody (PVRIG-A50-H1b) and the positive control (COM701-hIgG1).

[6] = molecular target: T4, cynomolgus monkey PVRIG (Novoprotein, Cat NO. C09B) (cynomolgus monkey, UniProt A0A2K5WVV8 41-171); test: ELISA, coated cynomolgus PVRIG
T4 construct: Bought protein; construct not described; also called cynomolgus monkey PVRIG protein
T4 sequence: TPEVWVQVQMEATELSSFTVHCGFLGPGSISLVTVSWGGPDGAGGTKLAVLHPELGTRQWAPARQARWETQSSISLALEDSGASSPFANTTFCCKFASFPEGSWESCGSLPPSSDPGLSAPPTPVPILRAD
Description: as §2

[7] = molecular target: T5, human PVRIG-mFc protein (Acro, PVG-H5253) (human, UniProt Q6DKI7 41-171, limits assumed); test: HTRF competition, PVRIG-mFc with Bio-CD112-His as competitor
T5 construct: extracellular domain; Bought protein; also called PVRIG-ECD-mFc; not shown: mouse Fc tag of the bought protein
T5 sequence (looked up): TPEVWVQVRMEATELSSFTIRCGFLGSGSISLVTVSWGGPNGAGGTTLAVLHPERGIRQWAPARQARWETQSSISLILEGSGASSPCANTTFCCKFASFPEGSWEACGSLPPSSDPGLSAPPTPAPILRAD
Description: PVRIG-mFc (ACRO Biosystems, Cat NO. PVG-H5253) and Bio-CD112-His (Sino Biological, Cat NO. 10005-H08H) were diluted to 0.5 μg/mL, respectively. Streptavidin-Tb cryptate (Cisbio) and PAb anti mouse IgG-XL665 (Cisbio) were diluted to 20 μg/mL and 0.8 μg/mL, respectively. The tested antibodies were diluted from the initial concentration of 120 nM, by 3-fold serial dilution for 12 concentration points. The diluted PVRIG-mFc, Bio-CD112-His, Streptavidin-Tb Crytate and PAb anti mouse IgG-XL665 were mixed at 1:1:1:1, and added into a 384-well plate (PE, Cat NO. 6007299), 10 μL/well. 10 μL/well of serially diluted antibodies was added into wells, centrifuged at 1500 rpm for 30s, and incubated at 37° C. for 1 hour. The plate was read on the microplate reader (PE, Envision2105) with wavelengths of 665 nm and 620 nm. […] A Four Parameter Logistic Fit was performed with the molar concentration of the antibodies as the abscissa and Ratio as the ordinate to calculate IC50. The smaller the IC50, the better the effect of the antibody block the binding of PVRIG to PVRL2. The positive controls in this experiment are COM701-hIgG1, PVRIG-A50-H1b and PVRIG-A105-H1; and the negative control antibody is anti-Fluorescein-hIgG1 (in house). The effect of 4 humanized bispecific antibodies blocking the binding of PVRIG to PVRL2 is shown in FIG. 51 and Tables 44 and 45. […] The blocking effect of LC-BsAb-002 is better than its corresponding monoclonal antibody (PVRIG-A50-H1b) and the positive control (COM701-hIgG1). The blocking effect of LC-BsAb-006 is better than its corresponding monoclonal antibody (PVRIG-A50-H1b), but slightly weaker than the positive control (COM701-hIgG1). The blocking effects of LC-BsAb-009 and LC-BsAb-010 are not as good as their corresponding monoclonal antibodies (PVRIG-A105-H1) and the positive control (COM701-hIgG1).

[8] = molecular target: T5, human PVRIG-mFc protein (Acro, …); test: FACS blocking of PVRIG-mFc binding to CHO-K1-CD112 cells; competitor CD112
Method in brief: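 Zombie violet-stained CHO-K1-CD112 cells were then added for 30 min at 4° C, followed by PE goat anti-mouse IgG Fc (1:250) and mean fluorescence intensity on a BD Canto II. IC50 and curve AUC came from four-parameter logistic fits (GraphPad Prism 9) and were expressed as percentages of reference antibody values.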

B1: RG6058-hIgG1 (antibody, V domains shown)
VH: EVQLQQSGPGLVKPSQTLSLTCAISGDSVSSNSAAWNWIRQSPSRGLEWLGKTYYRFKWYSDYAVSVKGRITINPDTSKNQFSLQLNSVTPEDTAVFYCTRESTTYDLLAGPFDYWGQGTLVTVSS
VL: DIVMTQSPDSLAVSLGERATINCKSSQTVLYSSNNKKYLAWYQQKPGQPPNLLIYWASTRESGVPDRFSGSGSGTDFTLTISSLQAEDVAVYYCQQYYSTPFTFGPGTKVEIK
notes: Anti-TIGIT positive control; also called Roche RG6058
B1 was tested, and the “% relative activity RG6058-hIgG1/tested antibody” value [1] was 100%, the “% relative activity TIGIT-002-H4L3/tested antibody” value [1] was 74.3% and the EC50 [1] was 0.0504 nM. For the same binder, the “% relative activity RG6058-hIgG1/tested antibody” value [2] was 100%, the “% relative activity TIGIT-005-H2L1d/tested antibody” value [2] was 85.2% and the EC50 [2] was 0.0504 nM. The “% relative activity RG6058-hIgG1/tested antibody” value [3] was 100%, the “% relative activity TIGIT-002-H4L3/tested antibody” value [3] was 90% and the EC50 [3] was 0.0461 nM. The “% relative activity RG6058-hIgG1/tested antibody” value [4] was 100%, the “% relative activity TIGIT-005-H2L1d/tested antibody” value [4] was 96.8% and the EC50 [4] was 0.0461 nM.

B2: TIGIT-005-H2L1d (antibody, V domains shown)
VH: EVQLVQSGAEVKKPGASVKVSCKASGYAFTNYLIEWVRQAPGQRLEWMGVINPGSGGTNYKEKFKGRVTITADKSSSTAYMELSSLRSEDTAVYYCARGEYFFFDYWGQGTTVTVSS
VL: DIVMTQSPDSLAVSLGERATINCKASQHVSNAVAWYQHKPGQSPKLLIYSASYRYTGVPDRFSGSGSGTDFTLTISSLQAEDVAVYYCQQHYNTPHTFGGGTKVEIK
In the case of B2, the “% relative activity RG6058-hIgG1/tested antibody” value [2] is reported as 117%, the “% relative activity TIGIT-005-H2L1d/tested antibody” value [2] is reported as 100% and the EC50 [2] is reported as 0.0429 nM. For the same binder, the “% relative activity RG6058-hIgG1/tested antibody” value [4] was 103%, the “% relative activity TIGIT-005-H2L1d/tested antibody” value [4] was 100% and the EC50 [4] was 0.0446 nM.

B3: PVRIG-A50-H1b (Fc fusion)
chain: EVQLVESGGGLVQPGGSLRLSCAASGFTFSYYDMSWVRQAPGKGLEWVSTINSDGGRTSYVDSVKGRFTISRDNSKNTLYLQMNSLRAEDTAVYYCVEGDPHNFGLESLSLRDFGSWGQGTMVTVSS
notes: VHH-human IgG1 Fc format is stated for the parental VHH antibodies; not restated for the humanized variants; also called A50.VH1b; not shown: human IgG1 hinge-CH2-CH3 (Fc)
For B3, the “% relative activity COM701-hIgG1/tested antibody” value [5] was 65.4%, the “% relative activity PVRIG-A50-H1b/tested antibody” value [5] was 100% and the EC50 [5] was 0.379 nM. For the same binder, the “% relative activity COM701-hIgG1/tested antibody” value [6] was 95.5%, the “% relative activity PVRIG-A50-H1b/tested antibody” value [6] was 100% and the EC50 [6] was 0.038 nM. For the same binder, the “% relative activity COM701-hIgG1/tested antibody” value [7] was 66.7%, the “% relative activity PVRIG-A50-H1b/tested antibody” value [7] was 100% and the IC50 [7] was 0.206 nM. The “% AUC to COM701-hIgG4” value [8] was 104%, the “% AUC to SO35-hIgG1” value [8] was 61.6% and the “% AUC to parental Ab” value [8] was 85.5%. For the same binder, the “% IC50 to COM701-hIgG4” value [8] was 95.2%, the “% IC50 to SO35-hIgG1” value [8] was 73.7% and the “% IC50 to parental Ab” value [8] was 81.4%.
